From article doi:10.1101/2021.06.01.446672 (bioRxiv, 2021) come the findings set out here.

Sequences and labels used below:
B1: PYP-binding protein (PBP) from Rhodobacter capsulatus (natural protein, UniProt D5AR21 1-142, looked up)
chain: MDIVGQLMTDNGRYTFRSDTLNLRVTGDFPEWVMAAAAEMVGIVARREVDSKIDELQALVEFGEASEIEIDSVKYDAKERFEIIPQCVVTMGRTDYRWVAPEGRAKHCATFDGNPVTRVHDMSMTRNDSFLDNENGVDTSGH

Data set [1] deals with the molecule itself. Kind of data set: SEC.
In data set [2] the target is B1. The data set can be described thus: transient absorption.
Data set [3] addresses B1. Kind of data set: transient grating.

Consider B1, for which the “stoichiometry N” value in data set [1] was 2.

B2: Photoactive yellow protein from Rhodobacter capsulatus (Rc-PYP) (natural protein, UniProt O69138 1-124, looked up)
chain: MEIIPFGTNDIDNILAREPARAESLPFGAVLLDRMGRIAKYNKAEGLIAGRDPSTVIGRDFFNEIAPCAKGKRFHGEFLKFNRTGQANVMLDYKFNYKGAEVAVKIHLKSQPDGQFCWLFVKRA
modifications: chromophore (protonated in pUV, deprotonated in pBL; isomerised on photoexcitation)
As to B2, the kon in data set [2] was 1.2e+06 M⁻¹ s⁻¹; in data set [3], 1.1e+06 M⁻¹ s⁻¹.
